In this data set the target is Factor X (FX), P00742.

Where a chain is given by its changes, count along the chain named. Names may count otherwise.

Factor X (FX), P00742, sequence (P00742 whole entry, looked up): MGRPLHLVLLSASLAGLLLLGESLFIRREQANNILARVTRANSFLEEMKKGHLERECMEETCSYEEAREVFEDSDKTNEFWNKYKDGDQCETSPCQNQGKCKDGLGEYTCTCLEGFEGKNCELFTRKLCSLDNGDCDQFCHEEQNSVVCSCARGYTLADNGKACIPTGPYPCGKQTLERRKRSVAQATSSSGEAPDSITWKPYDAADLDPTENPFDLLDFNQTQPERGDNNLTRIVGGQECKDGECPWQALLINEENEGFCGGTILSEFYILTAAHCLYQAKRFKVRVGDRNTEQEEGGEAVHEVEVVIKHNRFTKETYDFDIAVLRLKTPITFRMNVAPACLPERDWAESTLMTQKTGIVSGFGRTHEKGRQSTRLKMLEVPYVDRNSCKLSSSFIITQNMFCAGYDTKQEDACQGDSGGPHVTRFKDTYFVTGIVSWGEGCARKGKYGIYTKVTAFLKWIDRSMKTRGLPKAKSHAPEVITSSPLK

B1: FIXa-K247N/N249S/T343R/R403E/E410N (protein)
chain 1: YNSGKLEEFVQGNLERECMEEKCSFEEAREVFENTERTTEFWKQYVDGDQCESNPCLNGGSCKDDINSYECWCPFGFEGKNCELDVTCNIKNGRCEQFCKNSADNKVVCSCTEGYRLAENQKSCEPAVPFPCGRVSVSQTSKLTR
chain 2: VVGGEDAKPGQFPWQVVLNGKVDAFCGGSIVNEKWIVTAAHCVETGVKITVVAGEHNIEETEHTEQNRSVIRIIPHHNYNAAINKYNHDIALLELDEPLVLNSYVTPICIADKEYTNIFLKFGSGYVSGWGRVFHKGRSALVLQYLRVPLVDRATCLRSTKFRIYNNMFCAGFHEGGRDSCQGDSGGPHVTEVEGTSFLTGIISWGEECAMKGKYGIYTKVSEYVNWIKNKTKLT
B1: the kcat – broadly, the number of substrate molecules converted per active site and unit of time at saturation – amounted to 8 s⁻¹; the specificity constant (kcat/KM) (usually the second-order rate constant that governs catalysis at low substrate concentration) amounted to 1.3e+08 M⁻¹ s⁻¹.

B2: FIXa-K247N/N249S/R338E/T343R/E410N (protein)
chain 1: B1 chain 1
chain 2: B1 chain 2 with R158E, E223R
As to B2, the kcat turned out to be 7.9 s⁻¹ and the kcat/KM worked out at 3.1e+08 M⁻¹ s⁻¹.

B3: FIXa variant D203N/F205T/R318Y (mature FIX numbering) (protein)
chain 1: B1 chain 1
chain 2: B1 chain 2 with D23N, F25T, N67K, S69N, R138Y, R163T, E223R, N230E
As for B3, the KM of FX activation by FIXa in the Xase complex (FVIIIa, PC/PS vesicles, Ca2+) came out at 47.5 nM.

B4: FIXa-Y155F/R318Y/T343R/R403E (protein)
chain 1: B1 chain 1
chain 2: B1 chain 2 with N67K, S69N, R138Y, N230E
Regarding B4, the catalytic constant (kcat) was found to be 5 s⁻¹ and the kcat/KM is 7.1e+07 M⁻¹ s⁻¹.

B5: FIXa variant Y155F/R318Y/R403E/E410N (mature FIX numbering) (protein)
chain 1: B1 chain 1
chain 2: B1 chain 2 with N67K, S69N, R138Y, R163T
As for B5, the KM of FX activation by FIXa in the Xase complex (FVIIIa, PC/PS vesicles, Ca2+) worked out at 111 nM.

B6: FIXa variant R318Y/R338E/R403E (mature FIX numbering) (protein)
chain 1: B1 chain 1
chain 2: B1 chain 2 with N67K, S69N, R138Y, R158E, R163T, N230E
As to B6, the KM of FX activation by FIXa in the Xase complex (FVIIIa, PC/PS vesicles, Ca2+) is 59.7 nM.

B7: FIXa variant Y155F/R318Y/R338E/R403E (mature FIX numbering) (protein)
chain 1: B1 chain 1
chain 2: B1 chain 2 with N67K, S69N, R138Y, R158E, R163T, N230E
As for B7, the KM of FX activation by FIXa in the Xase complex (FVIIIa, PC/PS vesicles, Ca2+) worked out at 67.1 nM.

B8: FIXa variant Y155F/R318Y/R338E/R403E/E410N (mature FIX numbering) (protein)
chain 1: B1 chain 1
chain 2: B1 chain 2 with N67K, S69N, R138Y, R158E, R163T
With B8, the KM of FX activation by FIXa in the Xase complex (FVIIIa, PC/PS vesicles, Ca2+) came to 30.4 nM.

B9: FIXa-D104N/K106S/Y155F/K247N/N249S/R318Y/R338E/R403E/E410N (protein)
chain 1: B1 chain 1 with D104N, K106S
chain 2: B1 chain 2 with R138Y, R158E, R163T
For the protein B9, the specificity constant (kcat/KM) was found to be 1.3e+08 M⁻¹ s⁻¹.

B10: FIXa variant D203N/F205T/R338E/R403E (mature FIX numbering) (protein)
chain 1: B1 chain 1
chain 2: B1 chain 2 with D23N, F25T, N67K, S69N, R158E, R163T, N230E
Regarding B10, the KM of FX activation by FIXa in the Xase complex (FVIIIa, PC/PS vesicles, Ca2+) came out at 51.1 nM.

B11: FIXa variant R338E/R403E/E410N (mature FIX numbering) (protein)
chain 1: B1 chain 1
chain 2: B1 chain 2 with N67K, S69N, R158E, R163T
With B11, the KM of FX activation by FIXa in the Xase complex (FVIIIa, PC/PS vesicles, Ca2+) was 36.7 nM.

B12: FIXa-Y155F/R318Y/R403E/E410N (protein)
chain 1: B1 chain 1
chain 2: B1 chain 2 with N67K, S69N, R138Y, R163T
In the case of B12, the kcat/KM (M^-1s^-1), FX activation by FIXa in the Xase complex stood at 3.6e+07 M⁻¹ s⁻¹.

B13: FIXa variant K228N/R318Y/E410N (mature FIX numbering) (protein)
chain 1: B1 chain 1
chain 2: B1 chain 2 with K48N, N67K, S69N, R138Y, R163T, E223R
As to B13, the KM of FX activation by FIXa in the Xase complex (FVIIIa, PC/PS vesicles, Ca2+) was found to be 42 nM.

B14: FIXa variant Y155F/R318Y/R338E/E410N (mature FIX numbering) (protein)
chain 1: B1 chain 1
chain 2: B1 chain 2 with N67K, S69N, R138Y, R158E, R163T, E223R
As to B14, the KM of FX activation by FIXa in the Xase complex (FVIIIa, PC/PS vesicles, Ca2+) was found to be 16 nM.

B15: FIXa variant R318Y/R338E/R403E/E410N (mature FIX numbering) (protein)
chain 1: B1 chain 1
chain 2: B1 chain 2 with N67K, S69N, R138Y, R158E, R163T
On to B15, for which the KM of FX activation by FIXa in the Xase complex (FVIIIa, PC/PS vesicles, Ca2+) was 43.2 nM.

B16: FIXa variant K228N/R338E/R403E (mature FIX numbering) (protein)
chain 1: B1 chain 1
chain 2: B1 chain 2 with K48N, N67K, S69N, R158E, R163T, N230E
For B16, the KM of FX activation by FIXa in the Xase complex (FVIIIa, PC/PS vesicles, Ca2+) is 59.2 nM.

B17: FIXa-Y155F/K247N/N249S/R338E/T343R/R403E (protein)
chain 1: B1 chain 1
chain 2: B1 chain 2 with R158E, N230E
Take B17: the kcat stood at 14.6 s⁻¹ and the kcat/KM was 5.9e+08 M⁻¹ s⁻¹.

B18: FIXa-Y155F/K247N/N249S/R338E/T343R/E410N (protein)
chain 1: B1 chain 1
chain 2: B1 chain 2 with R158E, E223R
B18: the kcat was found to be 4.8 s⁻¹ and the catalytic efficiency (kcat/KM) was determined as 1.8e+08 M⁻¹ s⁻¹.

B19: FIXa variant D203N/F205T/R318Y/E410N (mature FIX numbering) (protein)
chain 1: B1 chain 1
chain 2: B1 chain 2 with D23N, F25T, N67K, S69N, R138Y, R163T, E223R
As to B19, the KM of FX activation by FIXa in the Xase complex (FVIIIa, PC/PS vesicles, Ca2+) came out at 45.7 nM.

B20: FIXa-Y155F/R318Y/R338E/T343R (protein)
chain 1: B1 chain 1
chain 2: B1 chain 2 with N67K, S69N, R138Y, R158E, E223R, N230E
For the protein B20, the kcat was 7.9 s⁻¹ and the specificity constant (kcat/KM) stood at 3.6e+08 M⁻¹ s⁻¹.

The values are drawn from patent US20210230570.
